# In patent publication US20240082360A1, “METHODS TO TREAT HEPATITIS DELTA VIRAL INFECTIONS” (Eiger Biopharmaceuticals, Inc., priority 2019, published 2024):
# How the values were obtained:
# [1] = test system: HDV; details: cited from earlier work
# [2] = test system: HDV; test: Phase 2 LIMT study: Lambda for 48 weeks in HDV patients, with two liver-biopsy case reports; format: in vivo, human; parameters: key to fibrosis score (ISHAK) in liver biopsy following Lambda treatment / fibrosis score (ISHAK) in post-treatment biopsy: F5: incomplete cirrhosis; F1: mild portal fibrosis
# Source text: See also International Application No. PCT/US2019/048038 for description of this therapy. Impact of Lambda therapy on liver histology was not assessed in the LIMT study. In this example, two case reports of regression of liver fibrosis following treatment in HDV patients from the LIMT study are provided.
# Two patients from the LIMT study, who had liver biopsies prior to study randomization, treated with subcutaneous injections of Lambda 180 mcg once weekly for 48 weeks, followed by a 24 week follow-up period, were evaluated with liver biopsy 18 months after last Lambda injection. Liver biopsies, staged according to the ISHAK scoring system, were compared with results of historical biopsies of the patients. HDV RNA viral load and ALT levels were assessed at baseline (BL), end of treatment (EOT) and end of study (EOS). Fibroscan® was performed at BL and EOS.
# FibroScan is a specialized ultrasound machine that measures fibrosis (scarring) and steatosis (fatty change) in the liver. The Fibroscan device (Echosens) works by measuring shear wave velocity. In this technique, a 50-MHz wave is passed into the liver from a small transducer on the end of an ultrasound probe. The probe also has a transducer on the end that can measure the velocity of the shear wave (in meters per second) as this wave passes through the liver. The shear wave velocity can then be converted into liver stiffness, which is expressed in kilopascals. Essentially, the technology measures the velocity of the sound wave passing through the liver and then converts that measurement into a liver stiffness measurement; the entire process is often referred to as liver ultrasonographic elastography. See additional discussion in Afdhal, N.H., Gastroenterol Hepatol (N Y). 8(9): 605-607 (2012).
# [3] = test system: HBV; details: cited from earlier work
# [4] = test system: HDV; details: HBV/HDV co-infected mice; four weeks; cited from earlier work
# [5] = test system: HDV; details: Lambda for 48 weeks; patients with HDV and compensated liver disease; cited from earlier work
Molecule,patients with undetectable HDV RNA ([1]; 24 weeks post-treatment follow-up),"HDV patients with undetectable HDV RNA ([1]; end of 48 weeks treatment, 180 mcg monotherapy, Robogene 2.0 assay)","HDV RNA level at EOS ([2]; Patient 1, 24 week follow-up after 48 weeks Lambda, BL 3.7 log10)","Fibroscan score at EOS ([2]; Patient 1, BL 20 kPa)","ALT at EOS ([2]; Patient 1, BL 169 U/L)","ALT at EOT ([2]; Patient 1, BL 169 U/L)","HDV RNA level at EOT ([2]; Patient 1, Lambda 180 mcg once weekly 48 weeks, BL 3.7 log10)","fibrosis score (ISHAK) in liver biopsy following Lambda treatment ([2]; Patient 1, biopsy 18 months after last Lambda injection, historical biopsy F5)","HDV RNA at EOS ([2]; Patient 2, 24 week follow-up after 48 weeks Lambda, BL 4.9 log10)","Fibroscan score at EOS ([2]; Patient 2, BL 7.7 kPa)","ALT at EOS ([2]; Patient 2, BL 159 U/L)","ALT at EOT ([2]; Patient 2, BL 159 U/L)","HDV RNA at EOT ([2]; Patient 2, Lambda 180 mcg once weekly 48 weeks, BL 4.9 log10)","fibrosis score (ISHAK) in post-treatment biopsy ([2]; Patient 2, biopsy 18 months after last Lambda injection, historical biopsy F4 (marked bridging fibrosis))",difference between pegylated interferon alfa and pegylated interferon lambda treatment ([3]; end of the treatment period),declines in viremia as compared to pegylated interferon alfa ([3]; midpoint of treatment (24 weeks)),"virologic rebound ([3]; post-treatment, versus pegylated interferon alfa)",reduction in HDV-RNA levels [4],durable virologic response (HDV RNA below limit of quantification at 24 weeks post-treatment) [5]
interferon alfa,0%,13%,,,,,,,,,,,,,,,,,
"Lambda: pegylated form of interferon lambda, a type III interferon signalling through interferon lambda receptors (protein, UniProt Q8IU54 20-200, looked up, PEG (peginterferon lambda-1a), pegylated form of interferon lambda, a type III interferon signalling through interferon lambda receptors) Interferon lambda-1: GPVPTSKPTTTGKGCHIGRFKSLSPQELASFKKARDALEESLKLKNWSCSSPVFPGNWDLRLLQVRERPVALEAELALTLKVLEAAAGPALEDVLDQPLHTLHHILSQLQACIQPQPTAGPRPRGRLHHWLHRLQEAPKKESAGCLEASVTFNLFRLLTRDLKYVADGNLCLRTSTHPEST",,,2.6 log10,9.9 kPa,54 U/L,55 U/L,undetectable,F1,3.6 log10,11.1 kPa,162 U/L,44 U/L,undetectable,F1,no difference,more pronounced declines in viremia,greater virologic rebound,1.5 log,36%
